Assays:
Test in all cases: SEC
[1] = biological target: His6 tagged recombinant pNL4-3-derived IN R269A/K273A/D256R (HIV-1 (NL4-3))
[2] = biological target: His6 tagged recombinant pNL4-3-derived IN R269A/K273A/D256N/D270N (HIV-1 (NL4-3))
[3] = biological target: His6 tagged recombinant pNL4-3-derived IN R262A/R263A/D256N/D270N (HIV-1 (NL4-3))
[4] = biological target: His6 tagged recombinant pNL4-3-derived IN R262A/R263A/D256R (HIV-1 (NL4-3))

Question: For “His6 tagged recombinant pNL4-3-derived IN R269A/K273A/D256R (enzyme)”, which stoichiometry N [1] is on record?
Answer: The stoichiometry N was 4.

Question: Which stoichiometry N [2] does the source give for “His6 tagged recombinant pNL4-3-derived IN R269A/K273A/D256N/D270N (enzyme)” here?
Answer: Its stoichiometry N is 4.

Question: Which stoichiometry N [3] does the source give for “His6 tagged recombinant pNL4-3-derived IN R262A/R263A/D256N/D270N (enzyme)” here?
Answer: Its stoichiometry N is 4.

Question: Which stoichiometry N [4] does the source give for “His6 tagged recombinant pNL4-3-derived IN R262A/R263A/D256R (enzyme)” here?
Answer: Its stoichiometry N is 4.

— doi:10.1101/2021.12.16.472884
